From patent US7514408

Molecular target: β-secretase (enzyme preparation not stated for the inhibitor assays) (human) (UniProt P56817)
Assay: cell-based or functional assay

Sequence of β-secretase (enzyme preparation not stated for the inhibitor assays) (human) (P56817 46-501 limits assumed): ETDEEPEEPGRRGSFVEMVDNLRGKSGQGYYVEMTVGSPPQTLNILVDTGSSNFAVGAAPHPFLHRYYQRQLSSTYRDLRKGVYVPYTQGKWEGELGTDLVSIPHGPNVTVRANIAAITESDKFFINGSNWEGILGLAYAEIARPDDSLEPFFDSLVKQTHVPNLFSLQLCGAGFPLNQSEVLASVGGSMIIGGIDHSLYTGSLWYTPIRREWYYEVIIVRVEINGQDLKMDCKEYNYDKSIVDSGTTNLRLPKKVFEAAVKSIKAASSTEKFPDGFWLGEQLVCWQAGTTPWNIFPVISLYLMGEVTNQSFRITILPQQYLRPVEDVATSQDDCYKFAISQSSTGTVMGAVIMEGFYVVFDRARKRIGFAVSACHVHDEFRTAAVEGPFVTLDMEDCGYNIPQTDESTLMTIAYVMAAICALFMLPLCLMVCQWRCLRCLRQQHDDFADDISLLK

IC50 in an MBP M125 assay (inhibition of β-secretase activity): 3 µM | enzyme inhibition relative to the Swedish sequence: 100 times
Substance: Swedish mutant P13-P5′ peptide with P1′ aspartic acid replaced with a valine (D→V) (from UniProt P05067 659-676)
